Test results as given in paper PMC12726990, “Sialylated Clusterin Binds CD33 to Regulate Microglial Functions in Alzheimer's Disease” (Alzheimer's & Dementia, 2025).

Target: T1, Sialylated clusterin (CLU) (UniProt P10909 23-449, sialylated)
T1 construct: Clusterin (CLU), soluble sialylated protein
Assay: BLI + MST; quantitative binding assay; which of the two methods gave the value, and who was immobilised or labelled, is not told
Conditions: both partners purified

T1 sequence (P10909 23-449): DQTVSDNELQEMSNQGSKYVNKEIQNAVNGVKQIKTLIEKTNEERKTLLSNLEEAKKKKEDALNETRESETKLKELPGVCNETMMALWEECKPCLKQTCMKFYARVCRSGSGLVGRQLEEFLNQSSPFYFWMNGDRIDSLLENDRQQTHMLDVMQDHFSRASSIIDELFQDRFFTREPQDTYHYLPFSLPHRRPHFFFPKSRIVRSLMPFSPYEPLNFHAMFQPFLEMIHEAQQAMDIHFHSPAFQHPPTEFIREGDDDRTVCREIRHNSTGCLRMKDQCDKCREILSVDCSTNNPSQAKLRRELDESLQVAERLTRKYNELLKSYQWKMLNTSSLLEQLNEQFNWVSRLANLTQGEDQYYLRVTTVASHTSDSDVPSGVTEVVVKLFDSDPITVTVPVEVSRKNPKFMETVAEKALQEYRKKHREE

Kd: 28.9 ± 10.3 nM
B1: sialic-acid binding immunoglobulin-like lectin 3 receptor (Siglec-3 / CD33) (receptor)
chain: DPNFWLQVQESVTVQEGLCVLVPCTFFHPIPYYDKNSPVHGYWFREGAIISRDSPVATNKLDQEVQEETQGRFRLLGDPSRNNCSLSIVDARRRDNGSYFFRMERGSTKYSYKSPQLSVHVTDLTHRPKILIPGTLEPGHSKNLTCSVSWACEQGTPPIFSWLSAAPTSLGPRTTHSSVLIITPRPQDHGTNLTCQVKFAGAGVTTERTIQLNVTYVPQNPTTGIFPGDGSGKQETRAGVVH
